In paper PMC9482650, “Quantitative fragmentomics allow affinity mapping of interactomes” (Nature Communications, 2022):

B1: GPR12, P47775 (peptide)
chain: AQRARSPSDV
B2: MYOT, Q9UBF9 (peptide)
chain: QSGLYESEEL

target: T1, DLG3_3, Q92796; assay: holdup assay; set-up: key: below the threshold = too weak to quantify, mostly under pKd 3.1 to 4; details: plain residues with an end cap or a label only (N-terminal biotin on a linker: ado-ado)
T1 sequence (Q92796 374-475, limits assumed, looked up): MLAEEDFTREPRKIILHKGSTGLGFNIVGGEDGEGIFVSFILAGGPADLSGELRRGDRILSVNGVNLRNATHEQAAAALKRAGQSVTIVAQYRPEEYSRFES

Row | Binder | pKd
1 | B1 | below the threshold
2 | B2 | below the threshold

target: Inadl_9, Q8NI35; assay: holdup assay; set-up: key: below the threshold = too weak to quantify, mostly under pKd 3.1 to 4; details: plain residues with an end cap or a label only (N-terminal biotin on a linker: ado-ado)
Sequence (Q8NI35 1530-1615): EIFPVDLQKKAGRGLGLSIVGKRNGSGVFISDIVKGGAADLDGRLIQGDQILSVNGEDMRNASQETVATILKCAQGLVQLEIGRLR

Row | Binder | pKd
3 | B1 | below the threshold
4 | B2 | below the threshold

target: MAGI2_4, Q86UL8; assay: holdup assay; set-up: key: below the threshold = too weak to quantify, mostly under pKd 3.1 to 4; details: plain residues with an end cap or a label only (N-terminal biotin on a linker: ado-ado)
Sequence (Q86UL8 772-865): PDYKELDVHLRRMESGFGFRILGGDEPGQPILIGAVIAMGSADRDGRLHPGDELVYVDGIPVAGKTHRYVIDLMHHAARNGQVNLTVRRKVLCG

Row | Binder | pKd
5 | B1 | below the threshold
6 | B2 | below the threshold

target: NHERF2_2, Q15599; assay: holdup assay; set-up: key: below the threshold = too weak to quantify, mostly under pKd 3.1 to 4; details: plain residues with an end cap or a label only (N-terminal biotin on a linker: ado-ado)
Sequence (Q15599 142-238): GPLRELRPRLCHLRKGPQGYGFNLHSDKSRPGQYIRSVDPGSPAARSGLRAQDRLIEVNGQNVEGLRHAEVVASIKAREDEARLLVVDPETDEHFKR

Row | Binder | pKd
7 | B1 | below the threshold
8 | B2 | 4.04

target: T2, SNTG1, Q9NSN8; assay: holdup assay; set-up: key: below the threshold = too weak to quantify, mostly under pKd 3.1 to 4; details: plain residues with an end cap or a label only (N-terminal biotin on a linker: ado-ado)
T2 sequence (Q9NSN8 52-150, limits assumed, looked up): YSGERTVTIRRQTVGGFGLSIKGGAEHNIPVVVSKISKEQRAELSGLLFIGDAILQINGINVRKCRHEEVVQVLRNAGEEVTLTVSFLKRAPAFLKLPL

Row | Binder | pKd
9 | B1 | below the threshold
10 | B2 | below the threshold

target: HTRA1, Q92743; assay: holdup assay; set-up: key: below the threshold = too weak to quantify, mostly under pKd 3.1 to 4; details: plain residues with an end cap or a label only (N-terminal biotin on a linker: ado-ado)
Sequence (Q92743 360-477): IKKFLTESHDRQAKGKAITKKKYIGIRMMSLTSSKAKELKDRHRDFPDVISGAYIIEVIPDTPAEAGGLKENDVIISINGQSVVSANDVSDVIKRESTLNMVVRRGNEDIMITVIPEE

Row | Binder | pKd
11 | B1 | below the threshold
12 | B2 | 4.17

target: T3, APBA2_1, Q99767; assay: holdup assay; set-up: key: below the threshold = too weak to quantify, mostly under pKd 3.1 to 4; details: plain residues with an end cap or a label only (N-terminal biotin on a linker: ado-ado)
T3 sequence (Q99767 563-664, limits assumed, looked up): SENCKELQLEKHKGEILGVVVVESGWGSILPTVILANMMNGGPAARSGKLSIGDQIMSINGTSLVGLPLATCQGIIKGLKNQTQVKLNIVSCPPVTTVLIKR

Row | Binder | pKd
13 | B1 | below the threshold
14 | B2 | below the threshold

target: GRASP, Q7Z6J2; assay: holdup assay; set-up: key: below the threshold = too weak to quantify, mostly under pKd 3.1 to 4; details: plain residues with an end cap or a label only (N-terminal biotin on a linker: ado-ado)
Sequence (Q7Z6J2 96-193): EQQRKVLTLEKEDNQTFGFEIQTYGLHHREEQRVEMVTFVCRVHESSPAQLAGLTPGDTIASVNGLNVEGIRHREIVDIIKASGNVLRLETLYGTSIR

Row | Binder | pKd
15 | B1 | below the threshold
16 | B2 | 4.09

target: DLG4_3, P78352; assay: holdup assay; set-up: key: below the threshold = too weak to quantify, mostly under pKd 3.1 to 4; details: plain residues with an end cap or a label only (N-terminal biotin on a linker: ado-ado)
Sequence (P78352 306-403): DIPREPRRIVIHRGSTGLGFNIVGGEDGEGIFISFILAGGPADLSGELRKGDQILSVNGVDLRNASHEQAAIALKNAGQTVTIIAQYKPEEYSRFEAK

Row | Binder | pKd
17 | B1 | below the threshold
18 | B2 | below the threshold

target: T4, DLG3_2, Q92796; assay: holdup assay; set-up: key: below the threshold = too weak to quantify, mostly under pKd 3.1 to 4; details: plain residues with an end cap or a label only (N-terminal biotin on a linker: ado-ado)
T4 sequence (Q92796 221-321, limits assumed, looked up): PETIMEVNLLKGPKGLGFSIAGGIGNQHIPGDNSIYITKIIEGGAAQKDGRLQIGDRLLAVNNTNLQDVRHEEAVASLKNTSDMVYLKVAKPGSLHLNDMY

Row | Binder | pKd
19 | B1 | 4.32
20 | B2 | 4.21

target: Inadl_2, Q8NI35; assay: holdup assay; set-up: key: below the threshold = too weak to quantify, mostly under pKd 3.1 to 4; details: plain residues with an end cap or a label only (N-terminal biotin on a linker: ado-ado)
Sequence (Q8NI35 238-335): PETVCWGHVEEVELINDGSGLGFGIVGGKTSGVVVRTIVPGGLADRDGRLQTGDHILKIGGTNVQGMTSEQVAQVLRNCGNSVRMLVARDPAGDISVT

Row | Binder | pKd
21 | B1 | below the threshold
22 | B2 | below the threshold

target: T5, DFNB31_3, Q9P202; assay: holdup assay; set-up: key: below the threshold = too weak to quantify, mostly under pKd 3.1 to 4; details: plain residues with an end cap or a label only (N-terminal biotin on a linker: ado-ado)
T5 sequence (Q9P202 811-907, limits assumed, looked up): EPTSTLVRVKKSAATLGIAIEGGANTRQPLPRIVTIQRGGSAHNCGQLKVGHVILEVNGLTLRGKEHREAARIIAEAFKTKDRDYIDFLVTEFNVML

Row | Binder | pKd
23 | B1 | 3.59
24 | B2 | 3.5

target: T6, SNTA1, Q13424; assay: holdup assay; set-up: key: below the threshold = too weak to quantify, mostly under pKd 3.1 to 4; details: plain residues with an end cap or a label only (N-terminal biotin on a linker: ado-ado)
T6 sequence (Q13424 82-180, limits assumed, looked up): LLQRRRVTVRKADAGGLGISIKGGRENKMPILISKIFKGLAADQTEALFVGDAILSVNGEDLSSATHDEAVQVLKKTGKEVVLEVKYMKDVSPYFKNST

Row | Binder | pKd
25 | B1 | below the threshold
26 | B2 | below the threshold

target: T7, PARD3B_1, Q8TEW8; assay: holdup assay; set-up: key: below the threshold = too weak to quantify, mostly under pKd 3.1 to 4; details: plain residues with an end cap or a label only (N-terminal biotin on a linker: ado-ado)
T7 sequence (Q8TEW8 196-299, limits assumed, looked up): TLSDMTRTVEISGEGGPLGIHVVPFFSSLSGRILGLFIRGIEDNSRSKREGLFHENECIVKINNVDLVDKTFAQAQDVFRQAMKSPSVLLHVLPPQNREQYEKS

Row | Binder | pKd
27 | B1 | below the threshold
28 | B2 | 3.86

target: IL16_1, Q14005; assay: holdup assay; set-up: key: below the threshold = too weak to quantify, mostly under pKd 3.1 to 4; details: plain residues with an end cap or a label only (N-terminal biotin on a linker: ado-ado)
Sequence (Q14005 210-306): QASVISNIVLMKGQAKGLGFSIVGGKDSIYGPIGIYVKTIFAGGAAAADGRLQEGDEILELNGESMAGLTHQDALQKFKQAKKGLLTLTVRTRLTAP

Row | Binder | pKd
29 | B1 | below the threshold
30 | B2 | below the threshold

target: LNX1_2, Q8TBB1; assay: holdup assay; set-up: key: below the threshold = too weak to quantify, mostly under pKd 3.1 to 4; details: plain residues with an end cap or a label only (N-terminal biotin on a linker: ado-ado)
Sequence (Q8TBB1 371-470): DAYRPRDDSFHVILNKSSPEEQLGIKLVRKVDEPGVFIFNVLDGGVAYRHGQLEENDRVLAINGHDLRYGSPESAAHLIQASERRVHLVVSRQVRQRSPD

Row | Binder | pKd
31 | B1 | below the threshold
32 | B2 | below the threshold

target: LAP2, Q96RT1; assay: holdup assay; set-up: key: below the threshold = too weak to quantify, mostly under pKd 3.1 to 4; details: plain residues with an end cap or a label only (N-terminal biotin on a linker: ado-ado)
Sequence (Q96RT1 other isoform, or with tags, fused parts or gaps): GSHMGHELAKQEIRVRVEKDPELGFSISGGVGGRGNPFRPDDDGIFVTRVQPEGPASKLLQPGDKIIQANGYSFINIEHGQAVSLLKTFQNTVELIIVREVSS

Row | Binder | pKd
33 | B1 | 3.51
34 | B2 | 3.9

target: T8, APBA3_1, O96018; assay: holdup assay; set-up: key: below the threshold = too weak to quantify, mostly under pKd 3.1 to 4; details: plain residues with an end cap or a label only (N-terminal biotin on a linker: ado-ado)
T8 sequence (O96018 389-490, limits assumed, looked up): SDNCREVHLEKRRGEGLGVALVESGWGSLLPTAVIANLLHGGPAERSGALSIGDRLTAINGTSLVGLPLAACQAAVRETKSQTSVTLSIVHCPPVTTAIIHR

Row | Binder | pKd
35 | B1 | below the threshold
36 | B2 | below the threshold

target: IL16_4, Q14005; assay: holdup assay; set-up: key: below the threshold = too weak to quantify, mostly under pKd 3.1 to 4; details: plain residues with an end cap or a label only (N-terminal biotin on a linker: ado-ado)
Sequence (Q14005 1229-1329): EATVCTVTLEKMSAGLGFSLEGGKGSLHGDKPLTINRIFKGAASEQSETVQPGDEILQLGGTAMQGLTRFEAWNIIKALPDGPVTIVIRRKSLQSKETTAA

Row | Binder | pKd
37 | B1 | below the threshold
38 | B2 | below the threshold

target: GRIP2_5, Q9C0E4; assay: holdup assay; set-up: key: below the threshold = too weak to quantify, mostly under pKd 3.1 to 4; details: plain residues with an end cap or a label only (N-terminal biotin on a linker: ado-ado)
Sequence (Q9C0E4 544-642): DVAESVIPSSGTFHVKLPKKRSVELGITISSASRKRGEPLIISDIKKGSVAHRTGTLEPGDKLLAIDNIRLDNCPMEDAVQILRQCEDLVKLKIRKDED

Row | Binder | pKd
39 | B1 | below the threshold
40 | B2 | below the threshold

target: T9, HTRA3, P83110; assay: holdup assay; set-up: key: below the threshold = too weak to quantify, mostly under pKd 3.1 to 4; details: plain residues with an end cap or a label only (N-terminal biotin on a linker: ado-ado)
T9 sequence (P83110 354-453, limits assumed, looked up): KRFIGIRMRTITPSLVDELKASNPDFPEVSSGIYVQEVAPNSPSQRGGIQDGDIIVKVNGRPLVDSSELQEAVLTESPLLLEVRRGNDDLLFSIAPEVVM

Row | Binder | pKd
41 | B1 | below the threshold
42 | B2 | below the threshold

target: T10, MPP6, Q9NZW5; assay: holdup assay; set-up: key: below the threshold = too weak to quantify, mostly under pKd 3.1 to 4; details: plain residues with an end cap or a label only (N-terminal biotin on a linker: ado-ado)
T10 sequence (Q9NZW5 125-219, limits assumed, looked up): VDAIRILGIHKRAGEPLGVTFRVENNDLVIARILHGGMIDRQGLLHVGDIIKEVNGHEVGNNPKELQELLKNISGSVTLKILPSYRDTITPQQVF

Row | Binder | pKd
43 | B1 | below the threshold
44 | B2 | below the threshold

target: T11, DFNB31_2, Q9P202; assay: holdup assay; set-up: key: below the threshold = too weak to quantify, mostly under pKd 3.1 to 4; details: plain residues with an end cap or a label only (N-terminal biotin on a linker: ado-ado)
T11 sequence (Q9P202 274-371, limits assumed, looked up): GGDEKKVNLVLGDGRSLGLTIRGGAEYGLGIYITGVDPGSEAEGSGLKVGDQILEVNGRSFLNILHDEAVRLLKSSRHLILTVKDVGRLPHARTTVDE

Row | Binder | pKd
45 | B1 | below the threshold
46 | B2 | below the threshold

target: SCRIB_1, Q14160; assay: holdup assay; set-up: key: below the threshold = too weak to quantify, mostly under pKd 3.1 to 4; details: plain residues with an end cap or a label only (N-terminal biotin on a linker: ado-ado)
Sequence (Q14160 718-814): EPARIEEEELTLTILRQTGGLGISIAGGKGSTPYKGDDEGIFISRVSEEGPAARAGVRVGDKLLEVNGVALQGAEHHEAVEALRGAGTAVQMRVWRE

Row | Binder | pKd
47 | B1 | below the threshold
48 | B2 | 3.76

target: MAST1, Q9Y2H9; assay: holdup assay; set-up: key: below the threshold = too weak to quantify, mostly under pKd 3.1 to 4; details: plain residues with an end cap or a label only (N-terminal biotin on a linker: ado-ado)
Sequence (Q9Y2H9 962-1065): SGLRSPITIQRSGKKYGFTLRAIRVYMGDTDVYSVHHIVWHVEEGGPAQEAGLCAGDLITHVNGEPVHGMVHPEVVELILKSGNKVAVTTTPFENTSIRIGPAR

Row | Binder | pKd
49 | B1 | below the threshold
50 | B2 | below the threshold

target: Inadl_6, Q8NI35; assay: holdup assay; set-up: key: below the threshold = too weak to quantify, mostly under pKd 3.1 to 4; details: plain residues with an end cap or a label only (N-terminal biotin on a linker: ado-ado)
Sequence (Q8NI35 1058-1167): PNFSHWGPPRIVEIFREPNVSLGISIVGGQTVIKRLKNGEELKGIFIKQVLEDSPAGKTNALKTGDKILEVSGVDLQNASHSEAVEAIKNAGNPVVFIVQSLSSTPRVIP

Row | Binder | pKd
51 | B1 | below the threshold
52 | B2 | below the threshold
